Experimental data as given in article PMC4900672, “Mechanism of Mitochondrial Transcription Factor A Attenuation of CpG-Induced Antibody Production”.

What was measured:
Assay in all cases: fluorescence anisotropy; FA: 50 mM HEPES-Na pH 7.4, 150 mM NaCl, 1 mM DTT, 20 C, 500 pM FM-DNA, Hill fit; EMSA: 5 nM FM-DNA, 8% PAGE, 0.33x TBE
TFAM = molecular target: T1, TFAM (UniProt Q00059 43-246); details: protein: recombinant, label: 5'-6FAM
T1 sequence: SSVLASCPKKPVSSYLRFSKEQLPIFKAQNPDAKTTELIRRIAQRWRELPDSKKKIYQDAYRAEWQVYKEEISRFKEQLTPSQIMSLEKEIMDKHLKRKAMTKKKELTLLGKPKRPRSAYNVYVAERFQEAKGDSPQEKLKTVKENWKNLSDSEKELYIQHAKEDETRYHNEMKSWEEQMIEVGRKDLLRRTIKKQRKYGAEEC

TFAM HMG Box A = molecular target: T2, TFAM HMG Box A (UniProt Q00059 50-118); details: protein: recombinant, label: 5'-6FAM
T2 sequence: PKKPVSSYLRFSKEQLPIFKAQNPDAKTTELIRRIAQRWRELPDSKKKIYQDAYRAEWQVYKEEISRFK

TFAM HMG Box B = molecular target: T3, TFAM HMG Box B (UniProt Q00059 155-219); details: protein: recombinant; label: 5'-6FAM; G-quadruplex possible (previous studies)
T3 sequence: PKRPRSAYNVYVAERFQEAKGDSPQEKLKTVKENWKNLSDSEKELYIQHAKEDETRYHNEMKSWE

[1] = G-quadruplex possible (previous studies)

B1: CpG-B (PS) (XNA)
DNA: TCGTCGTTTTGTCGTTTTGTCGTT
modifications: phosphorothioate (positions in Fig 1A)
B1 was tested, and the Kd (TFAM; single-stranded by CD) was 1.3 ± 0.03 nM and the Kd (TFAM HMG Box A; single-stranded by CD) was 10.4 ± 1 nM.

B2: ssLSP (PD) (ssDNA)
DNA: TTAACAGTCACCCCCCAACTAACAC
Binder B2 has a Kd (TFAM; single-stranded) of 10.2 ± 0.5 nM.

B3: CpG-B (PD) (ssDNA)
DNA: TCGTCGTTTTGTCGTTTTGTCGTT
B3 gave a Kd (TFAM; single-stranded) of 4.66 ± 0.2 nM.

B4: CpG-A (PS) (XNA)
DNA: GGGGACGACGTCGTGGGGGGG
modifications: phosphorothioate (positions in Fig 1A)
In the case of B4, the Kd (TFAM; [1]) is reported as 1.83 ± 0.07 nM, the Kd (TFAM HMG Box B) is reported as 231 ± 30 nM and the Kd (TFAM HMG Box A; [1]) is reported as 71.2 ± 38 nM.

B5: ssLSP (PS) (XNA)
DNA: TTAACAGTCACCCCCCAACTAACAC
modifications: phosphorothioate (positions in Fig 1A)
Binder B5 has a Kd (TFAM; single-stranded) of 5.06 ± 0.1 nM.
